Measured values as given in US20250367120A1, “PHARMACEUTICAL COMPOSITION AND METHOD FOR PRODUCING SAME” (SUNSHO PHARMACEUTICAL CO., LTD., priority 2022, published 2025).

Test: Area under the curve (AUC) and increase ratio (ER) of FD-4 in plasma after oral administration to Wistar rats
Description: Next, FD-4 was orally administered to Wistar rats using an oral sonde so that the dosage was 0.3 mg/kg. After the administration of the sample, blood was collected six times in total until six hours after the administration of the sample, and plasma was fractionated.
It is noted that “AUCt” is AUC (ng·h/mL) of the test preparation, and “dosage t” is dosage (mg/kg) of the test preparation (target data of the test preparation obtained in the above 2).

fluorescein isothiocyanate-dextran 4 [Comparative Example 4]
AUC (Wistar rats, FD-4 dosage 0.3 mg/kg, up to 6 hr, linear trapezoidal method): 24.3 ng·h/mL | AUCs (reference data of standard preparation) (rat, FD-4 dosage 0.3 mg/kg): 24.3 ng·h/mL | AUC (rat, FD-4 dosage 5.0 mg/kg): 390.5 ng·h/mL
